Laboratory results reported in patent US20090042786A1.

Molecular target: human Factor X activated (human) (UniProt P00742)
Assay: cell-based or functional assay

Chain of UniProt P00742 (P00742 235-488 limits assumed): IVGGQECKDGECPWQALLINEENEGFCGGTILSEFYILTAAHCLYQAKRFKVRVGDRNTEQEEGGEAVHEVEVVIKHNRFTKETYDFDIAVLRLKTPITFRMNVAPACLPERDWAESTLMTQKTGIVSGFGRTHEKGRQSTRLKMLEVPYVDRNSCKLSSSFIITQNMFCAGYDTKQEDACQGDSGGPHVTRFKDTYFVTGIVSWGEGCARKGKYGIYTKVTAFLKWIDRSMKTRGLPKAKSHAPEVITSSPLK

Amblyomin-X recombinant protein was tested, and the inhibition of the amidolytic activity of human Factor X activated (dose at which inhibition is seen) was 5 to 10 µM.
